Results reported in the Human Domainome abundance scans (Beltran et al. 2025).
± gives the uncertainty stated by the source.

B1: Membrane-associated guanylate kinase, WW and PDZ domain-containing protein 2, residues 601 to 682; numbered along this chain, Q86UL8 (parent)
chain: AELMTLTIVKGAQGFGFTIADSPTGQRVKQILDIQGCPGLCEGDLIVEINQQNVQNLSHTEVVDILKDCPIGSETSLIIHRG

Variants of: B1
Experiment: abundance fitness (aPCA) (normalised: wild type 0, dead -1); higher = more abundant; growth selection in yeast, the domain comes from the species named
Conditions: Homo sapiens

Variant	abundance fitness
L57E	-0.038 ± 0.079
L57D	-0.109 ± 0.19
L57G	-0.152 ± 0.065
L57W	-0.13 ± 0.11
L57M	-0.283 ± 0.14
L57N	0.076 ± 0.16
L57T	-0.128 ± 0.14
L57V	-0.029 ± 0.067
L57K	-0.108 ± 0.15
L57S	0.028 ± 0.06
L57H	-0.008 ± 0.14
L57Q	-0.081 ± 0.13
L57C	-0.046 ± 0.15
Q52A	-0.037 ± 0.044
Q52T	-0.018 ± 0.038
Q52L	-0.072 ± 0.03
Q52Y	-0.024 ± 0.05
Q52S	-0.037 ± 0.037
Q52I	0.038 ± 0.051
Q52R	-0.007 ± 0.037
Q52N	0.017 ± 0.046
Q52W	-0.095 ± 0.049
Q52E	-0.016 ± 0.069
Q52M	0.01 ± 0.045

Variant	abundance fitness
Q52D	0.027 ± 0.061
Q52K	0.049 ± 0.048
Q52H	-0.029 ± 0.043
Q52V	-0.039 ± 0.039
Q52F	-0.054 ± 0.045
Q52C	-0.052 ± 0.066
C37V	-0.119 ± 0.099
C37Q	-0.113 ± 0.16
C37E	0.005 ± 0.12
C37G	-0.28 ± 0.097
C37K	-0.208 ± 0.11
C37R	-0.163 ± 0.08
C37D	-0.052 ± 0.1
C37M	-0.16 ± 0.15
C37W	-0.287 ± 0.18
C37S	0.012 ± 0.18
C37I	-0.173 ± 0.27
C37Y	-0.036 ± 0.21
C37P	-0.384 ± 0.18
C37T	-0.05 ± 0.15
C37A	-0.195 ± 0.11
C37F	0.204 ± 0.49
E48K	-0.117 ± 0.11
E48Y	0.006 ± 0.26

Variant	abundance fitness
E48Q	-0.098 ± 0.17
E48V	-0.086 ± 0.087
E48A	-0.193 ± 0.094
E48D	-0.444 ± 0.23
E48I	-0.871 ± 0.47
E48M	-0.144 ± 0.2
E48H	0.091 ± 0.43
E48S	-0.004 ± 0.089
E48T	-0.226 ± 0.18
E48R	-0.103 ± 0.056
E48W	-0.158 ± 0.12
E48C	-0.145 ± 0.1
E48L	-0.114 ± 0.079
N56V	-0.128 ± 0.094
N56A	-0.076 ± 0.071
N56W	0.197 ± 0.28
N56T	-0.03 ± 0.11
N56P	0.072 ± 0.1
N56S	-0.053 ± 0.1
N56M	-0.06 ± 0.11
N56L	-0.051 ± 0.069
N56K	-0.046 ± 0.095
N56F	-0.099 ± 0.25
N56E	0.221 ± 0.23

Variant	abundance fitness
N56G	0.003 ± 0.079
N56Y	0.074 ± 0.42
N56C	-0.326 ± 0.22
N56R	-0.036 ± 0.052
N56Q	-0.099 ± 0.12
I49A	-0.173 ± 0.078
I49S	-0.97 ± 0.49
I49P	-1.01 ± 0.36
I49C	-0.094 ± 0.11
I49V	0.072 ± 0.082
I49G	-1.08 ± 0.31
I49T	-0.371 ± 0.34
I49Y	-0.14 ± 0.28
I49W	-0.241 ± 0.093
I49F	-0.065 ± 0.24
I49R	-0.875 ± 0.17
I49H	-0.964 ± 0.23
I49L	0.011 ± 0.087
I49M	-0.195 ± 0.13
L45S	0.256 ± 0.26
L45R	-0.244 ± 0.32
L45A	-0.088 ± 0.43
L45V	-0.232 ± 0.12
L45G	-0.096 ± 0.34

Variant	abundance fitness
L45M	0.089 ± 0.17
L45W	-0.161 ± 0.15
I46V	-0.079 ± 0.18
I46M	0.164 ± 0.14
I46T	-0.587 ± 0.27
I46L	0.236 ± 0.32
S58P	-0.174 ± 0.088
S58K	-0.236 ± 0.17
S58G	0.015 ± 0.1
S58D	-0.183 ± 0.17
S58N	-0.007 ± 0.23
S58C	0.052 ± 0.11
S58Y	-0.226 ± 0.26
S58E	-0.065 ± 0.092
S58V	-0.093 ± 0.079
S58W	-0.021 ± 0.12
S58F	-0.29 ± 0.16
S58Q	-0.057 ± 0.092
S58R	-0.119 ± 0.075
S58T	-0.135 ± 0.095
C41L	-0.005 ± 0.037
C41Q	-0.001 ± 0.061
C41N	-0.012 ± 0.081
C41F	0.016 ± 0.088

Variant	abundance fitness
C41D	0.036 ± 0.066
C41E	0.01 ± 0.044
C41I	0.057 ± 0.062
C41P	-1.02 ± 0.16
C41S	0.027 ± 0.038
C41W	-0.058 ± 0.039
C41H	0.144 ± 0.084
C41K	-0.036 ± 0.056
C41A	0.042 ± 0.04
C41M	-0.04 ± 0.05
C41T	0.046 ± 0.048
C41G	-0.046 ± 0.03
C41R	-0.022 ± 0.029
H59E	0.126 ± 0.15
H59W	-0.074 ± 0.1
H59K	-0.132 ± 0.092
H59I	-0.142 ± 0.16
H59R	-0.009 ± 0.057
H59Y	-0.109 ± 0.11
H59L	-0.01 ± 0.065
H59P	-0.094 ± 0.083
H59G	-0.018 ± 0.068
H59D	-0.176 ± 0.093
H59A	-0.088 ± 0.077

Variant	abundance fitness
H59N	-0.009 ± 0.27
H59M	0.065 ± 0.1
H59T	-0.132 ± 0.1
H59S	-0.038 ± 0.083
H59Q	-0.014 ± 0.1
L40P	-0.232 ± 0.09
L40A	-0.108 ± 0.17
L40S	-0.616 ± 0.21
L40T	-0.498 ± 0.097
L40M	-0.254 ± 0.17
L40F	0.047 ± 0.25
L40V	-0.061 ± 0.081
L40G	-0.752 ± 0.13
Q51T	0.005 ± 0.039
Q51F	-0.063 ± 0.041
Q51L	-0.064 ± 0.029
Q51N	0.045 ± 0.044
Q51I	-0.269 ± 0.048
Q51S	-0.018 ± 0.038
Q51E	-0.013 ± 0.063
Q51M	-0.042 ± 0.047
Q51H	-0.016 ± 0.041
Q51A	-0.012 ± 0.043
Q51P	-0.749 ± 0.07

Variant	abundance fitness
Q51K	-0.024 ± 0.042
Q51C	-0.067 ± 0.059
Q51D	-0.024 ± 0.05
Q51W	-0.09 ± 0.055
Q51V	-0.088 ± 0.042
N50D	-0.084 ± 0.23
N50V	-0.626 ± 0.17
N50E	0.013 ± 0.16
N50T	-0.455 ± 0.15
N50S	-0.03 ± 0.068
N50G	-0.058 ± 0.064
N50L	-0.219 ± 0.1
N50K	-0.011 ± 0.12
N50R	-0.068 ± 0.057
N50F	-0.71 ± 0.48
N50C	-0.71 ± 0.43
N50Y	-0.386 ± 0.27
N50W	-0.433 ± 0.15
N50M	-0.108 ± 0.1
N50H	0.024 ± 0.13
Q55A	-0.069 ± 0.095
Q55D	-0.111 ± 0.16
Q55G	0.073 ± 0.059
Q55R	0.004 ± 0.052

Variant	abundance fitness
Q55E	-0.029 ± 0.065
Q55I	-0.02 ± 0.12
Q55N	0.039 ± 0.32
Q55M	-0.01 ± 0.16
Q55S	-0.172 ± 0.097
Q55L	-0.106 ± 0.072
Q55K	-0.276 ± 0.18
Q55F	0.043 ± 0.45
Q55V	-0.027 ± 0.09
Q55W	-0.133 ± 0.082
Q55C	-0.111 ± 0.14
V47R	-0.018 ± 0.073
V47E	0.004 ± 0.12
V47F	0.185 ± 0.38
V47Q	0.033 ± 0.26
V47K	-0.195 ± 0.16
V47I	-0.165 ± 0.11
V47A	0.036 ± 0.082
V47S	-0.09 ± 0.069
V47G	-0.164 ± 0.063
V47W	-0.09 ± 0.11
V47D	-0.161 ± 0.33
V47N	-0.291 ± 0.39
V47Y	-0.337 ± 0.18

Variant	abundance fitness
V47C	-0.066 ± 0.09
N53T	-0.042 ± 0.035
N53M	-0.043 ± 0.05
N53R	-0.061 ± 0.033
N53H	-0.045 ± 0.036
N53E	-0.043 ± 0.047
N53F	-0.095 ± 0.038
N53S	-0.022 ± 0.033
N53G	-0.051 ± 0.037
N53K	-0.021 ± 0.042
N53D	-0.025 ± 0.043
N53I	-0.076 ± 0.04
N53P	-0.001 ± 0.034
N53Y	-0.064 ± 0.038
N53Q	-0.025 ± 0.042
N53W	-0.201 ± 0.049
N53A	-0.097 ± 0.034
N53L	-0.069 ± 0.03
P38V	-0.097 ± 0.088
P38R	-0.13 ± 0.098
P38Q	-0.121 ± 0.14
P38K	-0.001 ± 0.17
P38T	-0.038 ± 0.096
P38S	-0.056 ± 0.094

Variant	abundance fitness
P38L	0.037 ± 0.098
P38A	-0.096 ± 0.12
P38E	-0.11 ± 0.09
P38H	-0.363 ± 0.36
P38G	-0.067 ± 0.077
P38C	-0.158 ± 0.11
P38W	-0.09 ± 0.15
G36H	-0.126 ± 0.32
G36C	-0.044 ± 0.09
G36N	0.055 ± 0.21
G36T	0.064 ± 0.21
G36Q	-0.054 ± 0.2
G36R	-0.069 ± 0.08
G36S	-0.158 ± 0.081
G36F	-0.245 ± 0.22
G36P	-0.057 ± 0.15
G36L	-0.261 ± 0.22
G36E	0.037 ± 0.17
G36V	-0.009 ± 0.1
G36M	0.04 ± 0.13
G39K	-0.192 ± 0.2
G39W	-0.211 ± 0.25
G39S	-0.035 ± 0.084
G39P	-0.083 ± 0.13

Variant	abundance fitness
G39A	-0.052 ± 0.1
G39T	-0.017 ± 0.2
G39E	-0.255 ± 0.14
G39D	-0.197 ± 0.17
G39R	-0.167 ± 0.16
G39L	-0.22 ± 0.14
G39M	-0.192 ± 0.16
G39N	-0.043 ± 0.24
G39V	-0.392 ± 0.11
G39H	0.069 ± 0.25
E42F	-0.123 ± 0.1
E42L	-0.028 ± 0.05
E42R	-0.1 ± 0.052
E42M	0.036 ± 0.063
E42T	-0.015 ± 0.061
E42G	-0.114 ± 0.052
E42D	-0.152 ± 0.076
E42W	-0.171 ± 0.064
E42K	-0.016 ± 0.069
E42H	-0.23 ± 0.2
E42P	0.061 ± 0.075
E42C	-0.123 ± 0.064
E42V	-0.062 ± 0.05
E42I	-0.087 ± 0.089

Variant	abundance fitness
E42N	-0.087 ± 0.11
E42S	-0.049 ± 0.057
G43Q	0.068 ± 0.14
G43A	-0.086 ± 0.097
G43F	-0.275 ± 0.17
G43E	0.059 ± 0.2
G43W	-0.206 ± 0.099
G43H	0.004 ± 0.39
G43L	0 ± 0.11
G43D	0.023 ± 0.21
G43V	-0.761 ± 0.24
G43T	-0.121 ± 0.12
G43R	-0.182 ± 0.079
G43M	-0.261 ± 0.17
G43S	-0.104 ± 0.087
G43C	-0.187 ± 0.2
G43K	0.199 ± 0.36
V54A	-0.053 ± 0.04
V54Q	-0.688 ± 0.064
V54L	-0.089 ± 0.029
V54Y	-1 ± 0.12
V54S	-0.243 ± 0.034
V54C	-0.086 ± 0.052
V54K	-0.855 ± 0.1

Variant	abundance fitness
V54P	-0.806 ± 0.064
V54H	-1.18 ± 0.15
V54W	-0.779 ± 0.11
V54T	-0.037 ± 0.035
V54D	-0.964 ± 0.14
V54E	-0.906 ± 0.16
V54F	-0.867 ± 0.082
V54G	-0.523 ± 0.049
V54I	-0.07 ± 0.04
V54R	-0.939 ± 0.082
D44A	-0.263 ± 0.11
D44E	-0.874 ± 0.22
D44N	-0.21 ± 0.1
D44Y	-0.71 ± 0.2
D44C	-0.989 ± 0.28
D44S	-0.618 ± 0.12
D44G	-0.859 ± 0.11
D44Q	-0.567 ± 0.16
D44H	-0.79 ± 0.31
D44M	-0.572 ± 0.24
D44T	-0.95 ± 0.26
D44L	-1.27 ± 0.3
